First the molecules themselves.
B1: 11041gL1 C91S gH1 D54E (Fab, V domains shown)
VH: EVQLVESGGGLVQPGGSLRLSCAVSGFSLSSYAMIWVRQAPGKGLEWIGIIDIEGSTYYASWAKGRFTISRDSSKNTVYLQMNSLRAEDTAVYYCARDRFVGVDIFDPWGQGTLVTVSS
VL: AVVLTQSPSSLSASVGDRVTITCQASEDIYTNLAWYQQKPGKAPKLLIYWASTLASGVPSRFSGSGSGTDFTLTISSLQPEDFATYYCQASVYGNSADSRYTFGGGTKVEIK
notes: V-regions only; also called 11041gL2gH3
B2: 11041gL7 C91S S96A gH12 D54E (Fab, V domains shown)
VH: EVQLVESGGGLVQPGGSLRLSCAVSGFSLSSYAMIWVRQAPGKGLEWISIIDIEGSTYYASWAKGRFTISRDNSKNTLYLQMNSLRAEDTAVYYCARDRFVGVDIFDPWGQGTLVTVSS
VL: AIQLTQSPSSLSASVGDRVTITCQASEDIYTNLAWYQQKPGKAPKLLIYWASTLASGVPSRFSGSGSGTDFTLTISSLQPEDFATYYCQASVYGNAADSRYTFGGGTKVEIK
notes: V-regions only; also called 11041gL14gH18
B3: 11041gL1 C91S S96AgH17 (Fab, V domains shown)
VH: EVQLVESGGGLVQPGGSLRLSCAVSGFSLSSYAMIWVRQAPGKGLEWVGIIDIEGSTYYASWAKGRFTISRDNSKNTLYLQMNSLRAEDTAVYYCARDRFVGVDIFDPWGQGTLVTVSS
VL: AVVLTQSPSSLSASVGDRVTITCQASEDIYTNLAWYQQKPGKAPKLLIYWASTLASGVPSRFSGSGSGTDFTLTISSLQPEDFATYYCQASVYGNAADSRYTFGGGTKVEIK
notes: V-regions only; also called 11041gL10gH17; gH17 = gH11 D54E
B4: 11041gL1gH1 D54E (Fab, V domains shown)
VH: EVQLVESGGGLVQPGGSLRLSCAVSGFSLSSYAMIWVRQAPGKGLEWIGIIDIEGSTYYASWAKGRFTISRDSSKNTVYLQMNSLRAEDTAVYYCARDRFVGVDIFDPWGQGTLVTVSS
VL: AVVLTQSPSSLSASVGDRVTITCQASEDIYTNLAWYQQKPGKAPKLLIYWASTLASGVPSRFSGSGSGTDFTLTISSLQPEDFATYYCQACVYGNSADSRYTFGGGTKVEIK
notes: V-regions only; also called 11041gL1gH3
B5: 11041gL6 C91S gH11 D54E (Fab, V domains shown)
VH: EVQLVESGGGLVQPGGSLRLSCAVSGFSLSSYAMIWVRQAPGKGLEWVGIIDIEGSTYYASWAKGRFTISRDNSKNTLYLQMNSLRAEDTAVYYCARDRFVGVDIFDPWGQGTLVTVSS
VL: AVQLTQSPSSLSASVGDRVTITCQASEDIYTNLAWYQQKPGKAPKLLIYWASTLASGVPSRFSGSGSGTDFTLTISSLQPEDFATYYCQASVYGNSADSRYTFGGGTKVEIK
notes: V-regions only; also called 11041gL11gH17
B6: 11041gL1gH1 G55A (Fab, V domains shown)
VH: EVQLVESGGGLVQPGGSLRLSCAVSGFSLSSYAMIWVRQAPGKGLEWIGIIDIDASTYYASWAKGRFTISRDSSKNTVYLQMNSLRAEDTAVYYCARDRFVGVDIFDPWGQGTLVTVSS
VL: AVVLTQSPSSLSASVGDRVTITCQASEDIYTNLAWYQQKPGKAPKLLIYWASTLASGVPSRFSGSGSGTDFTLTISSLQPEDFATYYCQACVYGNSADSRYTFGGGTKVEIK
notes: V-regions only; also called 11041gL1gH2
B7: 11041gL1 C91S S96AgH15 (Fab, V domains shown)
VH: EVQLVESGGGLVQPGGSLRLSCAVSGFSLSSYAMIWVRQAPGKGLEWIGIIDIEGSTYYASWAKGRFTISRDSSKNTLYLQMNSLRAEDTAVYYCARDRFVGVDIFDPWGQGTLVTVSS
VL: AVVLTQSPSSLSASVGDRVTITCQASEDIYTNLAWYQQKPGKAPKLLIYWASTLASGVPSRFSGSGSGTDFTLTISSLQPEDFATYYCQASVYGNAADSRYTFGGGTKVEIK
notes: V-regions only; also called 11041gL10gH15; gH15 = gH8 D54E
B8: 11041gL6gH1 (Fab, V domains shown)
VH: EVQLVESGGGLVQPGGSLRLSCAVSGFSLSSYAMIWVRQAPGKGLEWIGIIDIDGSTYYASWAKGRFTISRDSSKNTVYLQMNSLRAEDTAVYYCARDRFVGVDIFDPWGQGTLVTVSS
VL: AVQLTQSPSSLSASVGDRVTITCQASEDIYTNLAWYQQKPGKAPKLLIYWASTLASGVPSRFSGSGSGTDFTLTISSLQPEDFATYYCQACVYGNSADSRYTFGGGTKVEIK
notes: V-regions only
B9: 11041gL1gH8 (Fab, V domains shown)
VH: EVQLVESGGGLVQPGGSLRLSCAVSGFSLSSYAMIWVRQAPGKGLEWIGIIDIDGSTYYASWAKGRFTISRDSSKNTLYLQMNSLRAEDTAVYYCARDRFVGVDIFDPWGQGTLVTVSS
VL: AVVLTQSPSSLSASVGDRVTITCQASEDIYTNLAWYQQKPGKAPKLLIYWASTLASGVPSRFSGSGSGTDFTLTISSLQPEDFATYYCQACVYGNSADSRYTFGGGTKVEIK
notes: V-regions only
B10: 11041gL1 C91S gH9 (Fab, V domains shown)
VH: EVQLVESGGGLVQPGGSLRLSCAASGFSLSSYAMIWVRQAPGKGLEWIGIIDIDGSTYYASWAKGRFTISRDSSKNTVYLQMNSLRAEDTAVYYCARDRFVGVDIFDPWGQGTLVTVSS
VL: AVVLTQSPSSLSASVGDRVTITCQASEDIYTNLAWYQQKPGKAPKLLIYWASTLASGVPSRFSGSGSGTDFTLTISSLQPEDFATYYCQASVYGNSADSRYTFGGGTKVEIK
notes: V-regions only; also called 11041gL2gH9
B11: 11041gL1 S96A gH1 (Fab, V domains shown)
VH: EVQLVESGGGLVQPGGSLRLSCAVSGFSLSSYAMIWVRQAPGKGLEWIGIIDIDGSTYYASWAKGRFTISRDSSKNTVYLQMNSLRAEDTAVYYCARDRFVGVDIFDPWGQGTLVTVSS
VL: AVVLTQSPSSLSASVGDRVTITCQASEDIYTNLAWYQQKPGKAPKLLIYWASTLASGVPSRFSGSGSGTDFTLTISSLQPEDFATYYCQACVYGNAADSRYTFGGGTKVEIK
notes: V-regions only; also called 11041gL9gH1
B12: 11041gL6 C91S gH8 D54E (Fab, V domains shown)
VH: EVQLVESGGGLVQPGGSLRLSCAVSGFSLSSYAMIWVRQAPGKGLEWIGIIDIEGSTYYASWAKGRFTISRDSSKNTLYLQMNSLRAEDTAVYYCARDRFVGVDIFDPWGQGTLVTVSS
VL: AVQLTQSPSSLSASVGDRVTITCQASEDIYTNLAWYQQKPGKAPKLLIYWASTLASGVPSRFSGSGSGTDFTLTISSLQPEDFATYYCQASVYGNSADSRYTFGGGTKVEIK
notes: V-regions only; also called 11041gL11gH15
B13: 11041gL1gH5 (Fab, V domains shown)
VH: EVQLVESGGGLVQPGGSLRLSCAVSGFSLSSYAMIWVRQAPGKGLEWIGIIDIDGSTYYASWAKGRFTISRDNSKNTVYLQMNSLRAEDTAVYYCARDRFVGVDIFDPWGQGTLVTVSS
VL: AVVLTQSPSSLSASVGDRVTITCQASEDIYTNLAWYQQKPGKAPKLLIYWASTLASGVPSRFSGSGSGTDFTLTISSLQPEDFATYYCQACVYGNSADSRYTFGGGTKVEIK
notes: V-regions only
B14: 11041gL1 S96A gH1 D54E (Fab, V domains shown)
VH: EVQLVESGGGLVQPGGSLRLSCAVSGFSLSSYAMIWVRQAPGKGLEWIGIIDIEGSTYYASWAKGRFTISRDSSKNTVYLQMNSLRAEDTAVYYCARDRFVGVDIFDPWGQGTLVTVSS
VL: AVVLTQSPSSLSASVGDRVTITCQASEDIYTNLAWYQQKPGKAPKLLIYWASTLASGVPSRFSGSGSGTDFTLTISSLQPEDFATYYCQACVYGNAADSRYTFGGGTKVEIK
notes: V-regions only; also called 11041gL9gH3
B15: 11041gL1 C91S S96AgH18 (Fab, V domains shown)
VH: EVQLVESGGGLVQPGGSLRLSCAVSGFSLSSYAMIWVRQAPGKGLEWISIIDIEGSTYYASWAKGRFTISRDNSKNTLYLQMNSLRAEDTAVYYCARDRFVGVDIFDPWGQGTLVTVSS
VL: AVVLTQSPSSLSASVGDRVTITCQASEDIYTNLAWYQQKPGKAPKLLIYWASTLASGVPSRFSGSGSGTDFTLTISSLQPEDFATYYCQASVYGNAADSRYTFGGGTKVEIK
notes: V-regions only; also called 11041gL10gH18; gH18 = gH12 D54E
B16: 11041gL7 C91S S96A gH8 D54E (Fab, V domains shown)
VH: EVQLVESGGGLVQPGGSLRLSCAVSGFSLSSYAMIWVRQAPGKGLEWIGIIDIEGSTYYASWAKGRFTISRDSSKNTLYLQMNSLRAEDTAVYYCARDRFVGVDIFDPWGQGTLVTVSS
VL: AIQLTQSPSSLSASVGDRVTITCQASEDIYTNLAWYQQKPGKAPKLLIYWASTLASGVPSRFSGSGSGTDFTLTISSLQPEDFATYYCQASVYGNAADSRYTFGGGTKVEIK
notes: V-regions only; also called 11041gL14gH15
B17: 11041gL1gH1 (Fab, V domains shown)
VH: EVQLVESGGGLVQPGGSLRLSCAVSGFSLSSYAMIWVRQAPGKGLEWIGIIDIDGSTYYASWAKGRFTISRDSSKNTVYLQMNSLRAEDTAVYYCARDRFVGVDIFDPWGQGTLVTVSS
VL: AVVLTQSPSSLSASVGDRVTITCQASEDIYTNLAWYQQKPGKAPKLLIYWASTLASGVPSRFSGSGSGTDFTLTISSLQPEDFATYYCQACVYGNSADSRYTFGGGTKVEIK
notes: Human Fab format (human kappa, human gamma-1 CH1); V-regions only
B18: 11041gL1 N95D gH1 (Fab, V domains shown)
VH: EVQLVESGGGLVQPGGSLRLSCAVSGFSLSSYAMIWVRQAPGKGLEWIGIIDIDGSTYYASWAKGRFTISRDSSKNTVYLQMNSLRAEDTAVYYCARDRFVGVDIFDPWGQGTLVTVSS
VL: AVVLTQSPSSLSASVGDRVTITCQASEDIYTNLAWYQQKPGKAPKLLIYWASTLASGVPSRFSGSGSGTDFTLTISSLQPEDFATYYCQACVYGDSADSRYTFGGGTKVEIK
notes: V-regions only; also called 11041gL8gH1
B19: 11041gL1gH1 D107E (Fab, V domains shown)
VH: EVQLVESGGGLVQPGGSLRLSCAVSGFSLSSYAMIWVRQAPGKGLEWIGIIDIDGSTYYASWAKGRFTISRDSSKNTVYLQMNSLRAEDTAVYYCARDRFVGVDIFEPWGQGTLVTVSS
VL: AVVLTQSPSSLSASVGDRVTITCQASEDIYTNLAWYQQKPGKAPKLLIYWASTLASGVPSRFSGSGSGTDFTLTISSLQPEDFATYYCQACVYGNSADSRYTFGGGTKVEIK
notes: V-regions only; also called 11041gL1gH4
B20: 11041gL6 C91S gH12 D54E (Fab, V domains shown)
VH: EVQLVESGGGLVQPGGSLRLSCAVSGFSLSSYAMIWVRQAPGKGLEWISIIDIEGSTYYASWAKGRFTISRDNSKNTLYLQMNSLRAEDTAVYYCARDRFVGVDIFDPWGQGTLVTVSS
VL: AVQLTQSPSSLSASVGDRVTITCQASEDIYTNLAWYQQKPGKAPKLLIYWASTLASGVPSRFSGSGSGTDFTLTISSLQPEDFATYYCQASVYGNSADSRYTFGGGTKVEIK
notes: V-regions only; also called 11041gL11gH18
B21: 11041gL7 C91S S96A gH11 D54E (Fab, V domains shown)
VH: EVQLVESGGGLVQPGGSLRLSCAVSGFSLSSYAMIWVRQAPGKGLEWVGIIDIEGSTYYASWAKGRFTISRDNSKNTLYLQMNSLRAEDTAVYYCARDRFVGVDIFDPWGQGTLVTVSS
VL: AIQLTQSPSSLSASVGDRVTITCQASEDIYTNLAWYQQKPGKAPKLLIYWASTLASGVPSRFSGSGSGTDFTLTISSLQPEDFATYYCQASVYGNAADSRYTFGGGTKVEIK
notes: V-regions only; also called 11041gL14gH17

The assay has as its target T1, Human IL22 (human, UniProt Q9GZX6 34-179).
T1 construct: IL22 of the Biacore and cell assays
T1 sequence: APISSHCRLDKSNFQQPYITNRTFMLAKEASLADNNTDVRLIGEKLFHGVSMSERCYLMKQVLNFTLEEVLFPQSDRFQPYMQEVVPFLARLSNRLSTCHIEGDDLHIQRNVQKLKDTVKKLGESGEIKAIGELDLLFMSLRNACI
In words: SPR (Biacore); Fab variant, human IL22. For orientation: SPR reads the build-up and loss of mass on a sensor chip optically.
The term Kd denotes the equilibrium constant for the complex coming apart. Higher therefore signals weaker binding. With B1, the affinity, expressed as Kd, was 28.1 pM. Turning to B2, the Kd came to 67.6 pM.

Turning to B3, the Kd worked out at 39.8 pM.

For B4, binding was put at a Kd of 166 pM. With B5 the figure was 51.6 pM; with B6, 627 pM.

For B7, the Kd came out at 79 pM. The value for B8 was 369 pM; that for B9 was 274 pM; that for B10 was 11.4 pM. Regarding B11, the affinity, expressed as Kd, was 200 pM. The value for B12 was 106 pM; that for B13 was 378 pM; that for B14 was 88.8 pM. The molecule B15 returned a Kd of 45.4 pM.

Molecule B16 registered a Kd of 104 pM. B17 yielded a Kd of 642 pM. B18 yielded a dissociation constant (Kd) of 129 pM. B19 gave a Kd of 657 pM. In turn, B20 showed a Kd of 44.4 pM. As for B21, the Kd came to 61.7 pM.
